# In the supplement of paper PMC9170038:
# System: MS2 coat protein
# Assay: apparent KD of MS2 coat protein, switch ON state; designed switch direction (-1 OFF switch, 1 ON switch): 1; higher = weaker reporter binding
# Settings: FMN input: 0 or 200 uM; Eterna round: R93 (includes R88 designs)
# In short: (§1)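 Apparent KD is reported per design as the median of normalised binding-curve fits across its clusters. The RNA switches were made by on-chip transcription from Illumina sequencing clusters. SNAP-549-labelled MS2 coat protein was then added in twofold steps (0.7 or 1.5 nM to 3 µM; 0.8–1.5 h to 10–20 min per step) in 100 mM Tris-HCl pH 7.5, 80 mM KCl, 4 mM MgCl2, without or with constant ligand.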
row,Sequence,apparent KD of MS2 coat protein
1,AAAAAACAUGAGGAUCACCCAUGUAAAAAAAUGGGAGGAUAUAUGAAAAAAAAAAAAAAAAUAGAAGGCCUGAAAA [same state 11],399 nM
2,UGAAAGGAGAGAGAGGAUAUCCAAAGGAAAACAUGAGGAUCACCCAUGUAGAAGGUAGGAAAUUGGGAGAAGGCUCAAGAAAGAG [salish99-ss2-139],50.7 nM
3,UAACAACAUGAGGAUCACCCAUGUCAAAUAAAUCGAGGAUAUGGGACGCAAGACGUCUUACCAGAAGGCGAAACAA [Leoratin],25.1 nM
4,AAAAUAAAAUAAAAGGAUAUAAAAUAAAAUACAUGAGGAUCACCCAUGUAUAAAAUAAAAAAAUAAAAGAAGGAAUAAAAAUAAA [SS2 504: MS2 4],16.4 nM
5,AAUAUACAUGAGGAUCACCCAUGUUAGGUGGGACUAGGAUAUCAAAAUACAUAAUGAACAUGAGAAGGAGUAUCAA [JR_SS001_Sub403],140 nM
6,AAAUAAAGGACUAAGGAUAUAUCGCAUGACACAUGAGGAUCACCCAUGUGGUAACACAGAGGGUGAUAGAAGGUAGUCCACAAACA [Pariah 6 (MS2 Riboswitches - Same State 2)],42.8 nM
7,GAAAAACAUGAGGAUCACCCAUGUAAAAAUAUGGGAGGAUAUAGAAAGACGAAAGUCAAACUAGAAGGCCUAAAAG [Garnet 1],28.1 nM
8,AAUAUACAUGAGGAUCACCCAUGUUAGGUGGGACUAGGAUAUCAGAGUACAUAAUGAACAUGAGAAGGAGUAUCAA [JR_SS001_Sub404],115 nM
9,AAAAAAUAAAAAAAGGAUAUAAAUGCUAGAACAUGAGGAUCACCCAUGUACUAGCAAAAAAUAAAAAAGAAGGAAAAAUAAAAAA [SS2: MS2 18],15.6 nM
10,AAAAAGGAGAGAGAGGAUAUCCAAAGGAAAACAUGAGGAUCACCCAUGUAAAAGGUAGGAAAUUGGGAGAAGGCUCAAGAGAGAG [salish99-ss2-107],17.6 nM
11,AUAAAUAAAAGCGAGGAUAUCCAAAAAAAAACAUGAGGAUCACCCAUGUAAAAGAAAAUAAAAUGGGAGAAGGCGCAAAAUAAAU [SS2 M 9],21.2 nM
12,AAUUGACAUGAGGAUCACCCAUGUAGGAUUAUGGGAGGAUAUACAAAGACGAGAGUCAGAGUAGAAGGCCUAGGAA [salish99-ss1-146],25 nM
13,GGAGCUCCAGCGCAGGAUAUCGACCCAGGGACAUGAGGAUCACCCAUGUUCCAAAAAAAAUGGGUCGAGAAGGGCGUUGGAGAGCC [SAmeState2-III],11 nM
14,CAUCAUGCGCCUAAGGAUAUGUCUCACAAGACAUGAGGAUCACCCAUGUAGAAUAAAUAAACGAUGCAGAAGGUGGAGUGCAUGC [Vetimaor],56.7 nM
15,GAAAAACAUGAGGAUCACCCAUGUGAAAACUUGGGAGGAUAUACUAAGACGAAAGUCGAAGUAGAAGGCCUAAAAG [Same State 1.4j (Mat - Mod of Eli - )],19 nM
16,AAAACACAUGAGGAUCACCCAUGUAAAAACAUGAGAGGAUAUGCAUGAAAAACAUGCUAUGCAGAAGGCUCAUGUG [SS1 - 1],20.9 nM
17,AAAUAAAAAAAAAAGGAUAUUCAUGUAAAAACAUGAGGAUCACCCAUGUAAAAAAAUAAAAAUAAAAAGAAGGAAAAAUAAAAAA [SS2: 85 No MS2],77.1 nM

row,Sequence,apparent KD of MS2 coat protein
1,AGAAGACAUGAGGAUCACCCAUGUGGGAAUAUGGGAGGAUAUACAAAGACGAGAGUCAGAGUAGAAGGCCUAGGUA [salish99-ss1-109],32.5 nM
2,GGGAGACAUGAGGAUCACCCAUGUGAGAAGAGGCGAGGAUAUCGAAAAAAAAAAAAAAAACGAGAAGGCGCGAGAA [salish99-SS1-003],23.3 nM
3,AAAAUACAUGAGGAUCACCCAUGUCCGACAAAUCAAGGAUAUGAUAGCCAAACCAGGCUGUUAGAAGGUGAAAGAA [Esesrien],260 nM
4,AAAAAACAUGAGGAUCACCCAUGUAAAAAUAUGGGAGGAUAUUCAAACACGAAAGUGAAAGAAGAAGGCCUAAAAA [SS! MT 18],15 nM
5,AAAAAACAUGAGGAUCACCCAUGUAAAUCUCAUGUAGGAUAUACAAAAAAAAAAAAAAAAGUAGAAGGACAAAAAA [Omei A variation 5],125 nM
6,AAUGAACAUGAGGAUCACCCAUGUUCUAACAGUUGAGGAUAUGUGGGUGAAAAUAGCACGGCAGAAGGCGAGUGUA [SameState1 Malc#20],119 nM
7,AACAAUCUAUCUGAGGAUAUGUGUCGAAAGACAUGAGGAUCACCCAUGUAAAAACAUGGAAAGAUACAGAAGGCAGAUAGAUUGA [SS2: 1157],28.4 nM
8,AACAAUCUAUCUGAGGAUAUCAAAAAAAAAACAUGAGGAUCACCCAUGUCUAGGAAAACUAGAUAUGAGAAGGCAGAUAGAUUGA [SS1 - 593],7.93 nM
9,AAAAAACAUGAGGAUCACCCAUGUCCUCGGACGUGAGGAUAUGUACAGACUUCGGUCUGUACAGAAGGCACGAAAA [SS1 - 1036],503 nM
10,"GAUAAACAUGAGGAUCACCCAUGUAGAAAUAUGGGAGGAUAUACAAAGACGAAAGUCAAAGUAGAAGGCCUAAAAG [77%, Mat - Mod of Eli - With 1 more U's]",24.4 nM
11,AAGAAACAUGAGGAUCACCCAUGUAAAUAAAUCUCAGGAUAUCGUACAUGGAAGAUCUAACGAGAAGGGAGAAGAA [Pariah 1 (MS2 Riboswitches - Same State 1)],85.7 nM
12,UGGAGACAUGAGGAUCACCCAUGUAGAAGGAUGGGAGGAUAUACAAAGACGAGAGUCAGAGUAGAAGGCCUAGGAG [salish99-ss1-188],31.3 nM
13,AGGAGACAUGAGGAUCACCCAUGUGAGAAGAGGCGAGGAUAUCGAAAGAAAGAAGAGAAACGAGAAGGCGCGAGCG [salish99-SS1-028],26.7 nM
14,AAUACACAUGAGGAUCACCCAUGUAGAAAGAAGGCAGGAUAUCAGAUCCACAUGUGAUAAUGAGAAGGGCCAAUAA [SS 1 Tesla 9],21.1 nM
15,AGAAGACAUGAGGAUCACCCAUGUGGGAAUAUGGGAGGAUAUACAAAGACGAGAGUCAGAGUAGAAGGCCUAGGCA [salish99-ss1-111],47 nM
16,AUAAAACAUGAGGAUCACCCAUGUCCGACAAAUCAAGGAUAUGAGAGCCUAACCAGGCUGUUAGAAGGUGAAAGAU [Riteat],229 nM

# System: MS2 coat protein
# Assay: apparent KD of MS2 coat protein, switch OFF state (with FMN for OFF switches, without FMN for ON switches); designed switch direction (-1 OFF switch, 1 ON switch): 1; higher = weaker reporter binding
# Settings: FMN input: 0 or 200 uM; Eterna round: R93 (includes R88 designs)
# In short: as §1
row,Sequence,apparent KD of MS2 coat protein
1,AAAAAACAUGAGGAUCACCCAUGUAAAAAAAUGGGAGGAUAUAUGAAAAAAAAAAAAAAAAUAGAAGGCCUGAAAA [same state 11],64.2 nM
2,UGAAAGGAGAGAGAGGAUAUCCAAAGGAAAACAUGAGGAUCACCCAUGUAGAAGGUAGGAAAUUGGGAGAAGGCUCAAGAAAGAG [salish99-ss2-139],35.4 nM
3,UAACAACAUGAGGAUCACCCAUGUCAAAUAAAUCGAGGAUAUGGGACGCAAGACGUCUUACCAGAAGGCGAAACAA [Leoratin],70.9 nM
4,AAAAUAAAAUAAAAGGAUAUAAAAUAAAAUACAUGAGGAUCACCCAUGUAUAAAAUAAAAAAAUAAAAGAAGGAAUAAAAAUAAA [SS2 504: MS2 4],11.2 nM
5,AAUAUACAUGAGGAUCACCCAUGUUAGGUGGGACUAGGAUAUCAAAAUACAUAAUGAACAUGAGAAGGAGUAUCAA [JR_SS001_Sub403],249 nM
6,AAAUAAAGGACUAAGGAUAUAUCGCAUGACACAUGAGGAUCACCCAUGUGGUAACACAGAGGGUGAUAGAAGGUAGUCCACAAACA [Pariah 6 (MS2 Riboswitches - Same State 2)],287 nM
7,GAAAAACAUGAGGAUCACCCAUGUAAAAAUAUGGGAGGAUAUAGAAAGACGAAAGUCAAACUAGAAGGCCUAAAAG [Garnet 1],63 nM
8,AAUAUACAUGAGGAUCACCCAUGUUAGGUGGGACUAGGAUAUCAGAGUACAUAAUGAACAUGAGAAGGAGUAUCAA [JR_SS001_Sub404],110 nM
9,AAAAAAUAAAAAAAGGAUAUAAAUGCUAGAACAUGAGGAUCACCCAUGUACUAGCAAAAAAUAAAAAAGAAGGAAAAAUAAAAAA [SS2: MS2 18],14.8 nM
10,AAAAAGGAGAGAGAGGAUAUCCAAAGGAAAACAUGAGGAUCACCCAUGUAAAAGGUAGGAAAUUGGGAGAAGGCUCAAGAGAGAG [salish99-ss2-107],36.5 nM
11,AUAAAUAAAAGCGAGGAUAUCCAAAAAAAAACAUGAGGAUCACCCAUGUAAAAGAAAAUAAAAUGGGAGAAGGCGCAAAAUAAAU [SS2 M 9],7.54 nM
12,AAUUGACAUGAGGAUCACCCAUGUAGGAUUAUGGGAGGAUAUACAAAGACGAGAGUCAGAGUAGAAGGCCUAGGAA [salish99-ss1-146],82.1 nM
13,GGAGCUCCAGCGCAGGAUAUCGACCCAGGGACAUGAGGAUCACCCAUGUUCCAAAAAAAAUGGGUCGAGAAGGGCGUUGGAGAGCC [SAmeState2-III],12.2 nM
14,CAUCAUGCGCCUAAGGAUAUGUCUCACAAGACAUGAGGAUCACCCAUGUAGAAUAAAUAAACGAUGCAGAAGGUGGAGUGCAUGC [Vetimaor],361 nM
15,GAAAAACAUGAGGAUCACCCAUGUGAAAACUUGGGAGGAUAUACUAAGACGAAAGUCGAAGUAGAAGGCCUAAAAG [Same State 1.4j (Mat - Mod of Eli - )],89.1 nM
16,AAAACACAUGAGGAUCACCCAUGUAAAAACAUGAGAGGAUAUGCAUGAAAAACAUGCUAUGCAGAAGGCUCAUGUG [SS1 - 1],27.2 nM
17,AAAUAAAAAAAAAAGGAUAUUCAUGUAAAAACAUGAGGAUCACCCAUGUAAAAAAAUAAAAAUAAAAAGAAGGAAAAAUAAAAAA [SS2: 85 No MS2],164 nM

row,Sequence,apparent KD of MS2 coat protein
1,AGAAGACAUGAGGAUCACCCAUGUGGGAAUAUGGGAGGAUAUACAAAGACGAGAGUCAGAGUAGAAGGCCUAGGUA [salish99-ss1-109],99.5 nM
2,GGGAGACAUGAGGAUCACCCAUGUGAGAAGAGGCGAGGAUAUCGAAAAAAAAAAAAAAAACGAGAAGGCGCGAGAA [salish99-SS1-003],38 nM
3,AAAAUACAUGAGGAUCACCCAUGUCCGACAAAUCAAGGAUAUGAUAGCCAAACCAGGCUGUUAGAAGGUGAAAGAA [Esesrien],151 nM
4,AAAAAACAUGAGGAUCACCCAUGUAAAAAUAUGGGAGGAUAUUCAAACACGAAAGUGAAAGAAGAAGGCCUAAAAA [SS! MT 18],139 nM
5,AAAAAACAUGAGGAUCACCCAUGUAAAUCUCAUGUAGGAUAUACAAAAAAAAAAAAAAAAGUAGAAGGACAAAAAA [Omei A variation 5],75.2 nM
6,AAUGAACAUGAGGAUCACCCAUGUUCUAACAGUUGAGGAUAUGUGGGUGAAAAUAGCACGGCAGAAGGCGAGUGUA [SameState1 Malc#20],54.6 nM
7,AACAAUCUAUCUGAGGAUAUGUGUCGAAAGACAUGAGGAUCACCCAUGUAAAAACAUGGAAAGAUACAGAAGGCAGAUAGAUUGA [SS2: 1157],107 nM
8,AACAAUCUAUCUGAGGAUAUCAAAAAAAAAACAUGAGGAUCACCCAUGUCUAGGAAAACUAGAUAUGAGAAGGCAGAUAGAUUGA [SS1 - 593],49.6 nM
9,AAAAAACAUGAGGAUCACCCAUGUCCUCGGACGUGAGGAUAUGUACAGACUUCGGUCUGUACAGAAGGCACGAAAA [SS1 - 1036],319 nM
10,"GAUAAACAUGAGGAUCACCCAUGUAGAAAUAUGGGAGGAUAUACAAAGACGAAAGUCAAAGUAGAAGGCCUAAAAG [77%, Mat - Mod of Eli - With 1 more U's]",55.5 nM
11,AAGAAACAUGAGGAUCACCCAUGUAAAUAAAUCUCAGGAUAUCGUACAUGGAAGAUCUAACGAGAAGGGAGAAGAA [Pariah 1 (MS2 Riboswitches - Same State 1)],63.4 nM
12,UGGAGACAUGAGGAUCACCCAUGUAGAAGGAUGGGAGGAUAUACAAAGACGAGAGUCAGAGUAGAAGGCCUAGGAG [salish99-ss1-188],42.8 nM
13,AGGAGACAUGAGGAUCACCCAUGUGAGAAGAGGCGAGGAUAUCGAAAGAAAGAAGAGAAACGAGAAGGCGCGAGCG [salish99-SS1-028],34.3 nM
14,AAUACACAUGAGGAUCACCCAUGUAGAAAGAAGGCAGGAUAUCAGAUCCACAUGUGAUAAUGAGAAGGGCCAAUAA [SS 1 Tesla 9],102 nM
15,AGAAGACAUGAGGAUCACCCAUGUGGGAAUAUGGGAGGAUAUACAAAGACGAGAGUCAGAGUAGAAGGCCUAGGCA [salish99-ss1-111],129 nM
16,AUAAAACAUGAGGAUCACCCAUGUCCGACAAAUCAAGGAUAUGAGAGCCUAACCAGGCUGUUAGAAGGUGAAAGAU [Riteat],192 nM
